Results: IntAct's records for PubMed 18337722

B1: Ataxin-1 (Homo sapiens), P54253 (parent)
chain: MKSNQERSNECLPPKKREIPATSRSSEEKAPTLPSDNHRVEGTAWLPGNPGGRGHGGGRHGPAGTSVELGLQQGIGLHKALSTGLDYSPPSAPRSVPVATTLPAAYATPQPGTPVSPVQYAHLPHTFQFIGSSQYSGTYASFIPSQLIPPTANPVTSAVASAAGATTPSQRSQLEAYSTLLANMGSLSQTPGHKAEQQQQQQQQQQQQHQHQQQQQQQQQQQQQQHLSRAPGLITPGSPPPAQQNQYVHISSSPQNTGRTASPPAIPVHLHPHQTMIPHTLTLGPPSQVVMQYADSGSHFVPREATKKAESSRLQQAIQAKEVLNGEMEKSRRYGAPSSADLGLGKAGGKSVPHPYESRHVVVHPSPSDYSSRDPSGVRASVMVLPNSNTPAADLEVQQATHREASPSTLNDKSGLHLGKPGHRSYALSPHTVIQTTHSASEPLPVGLPATAFYAGTQPPVIGYLSGQQQAITYAGSLPQHLVIPGTQPLLIPVGSTDMEASGAAPAIVTSSPQFAAVPHTFVTTALPKSENFNPEALVTQAAYPAMVQAQIHLPVVQSVASPAAAPPTLPPYFMKGSIIQLANGELKKVEDLKTEDFIQSAEISNDLKIDSSTVERIEDSHSPGVAVIQFAVGEHRAQVSVEVLVEYPFFVFGQGWSSCCPERTSQLFDLPCSKLSVGDVCISLTLKNLKNGSVKKGQPVDPASVLLKHSKADGLAGSRHRYAEQENGINQGSAQMLSENGELKFPEKMGLPAAPFLTKIEPSKPAATRKRRWSAPESRKLEKSEDEPPLTLPKPSLIPQEVKICIEGRSNVGK
partner: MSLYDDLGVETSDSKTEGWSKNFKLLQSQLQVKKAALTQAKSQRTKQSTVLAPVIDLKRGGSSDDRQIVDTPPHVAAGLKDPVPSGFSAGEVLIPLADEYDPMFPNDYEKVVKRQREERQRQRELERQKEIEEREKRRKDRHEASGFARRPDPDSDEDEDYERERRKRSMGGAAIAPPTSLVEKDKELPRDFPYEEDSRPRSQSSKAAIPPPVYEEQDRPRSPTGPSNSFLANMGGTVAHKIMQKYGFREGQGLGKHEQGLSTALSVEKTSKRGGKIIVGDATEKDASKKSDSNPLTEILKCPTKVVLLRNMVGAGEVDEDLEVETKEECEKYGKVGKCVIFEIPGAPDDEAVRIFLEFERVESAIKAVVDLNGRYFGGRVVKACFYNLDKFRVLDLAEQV

Variants of: B1
Details: with spf45_human RBM17, Q96I25

effect of a mutation on the interaction | Variant
disrupting interaction strength | S775A
